Measurements published in patent publication US20140328762A1 (published 2014).

Experiments:
JunLZ-Sb1b3 beacon = JunLZ-Sb1b3 beacon (UniProt P0AEX9 27-392 = MBP); assay: fluorescence screening assay (FIG. 11)
Procedure: (§1) The graphs show a comparison of binding-induced fluorescence enhancement of JunLZ beacons. Concentration for all beacons is 1.0 and concentration of FosLZ or scrFosLZ is 10.0 μM. The assay was carried out in 0.1 M PBS, pH7.2 at room temperature. […] Numbers above the curves represent signal to noise ratios calculated from the maxim emission values that centered around 585 nm.
(§2) The purified fusion proteins were used directly without removing the MBP fusion partner. To prepare the beacons, TAMRA fluorophores were attached to the fusion proteins via the maleimide chemistry.

JunLZ-Sb3b5 beacon = JunLZ-Sb3b5 beacon (UniProt P0AEX9 27-392 = MBP); assay: fluorescence screening assay (FIG. 11)
Procedure: as §1, §2

JunLZ-Sb1b4 beacon = JunLZ-Sb1b4 beacon (UniProt P0AEX9 27-392 = MBP); assay: fluorescence screening assay (FIG. 11)
Procedure: as §1, §2

JunLZ-Lb1b3 beacon = JunLZ-Lb1b3 beacon (UniProt P0AEX9 27-392 = MBP); assay: fluorescence emission screening (FIG. 11)
Procedure: as §1, §2

JunLZ-Lb3b5 beacon = JunLZ-Lb3b5 beacon (UniProt P0AEX9 27-392 = MBP); assay: fluorescence emission screening (FIG. 11)
Procedure: as §1, §2

JunLZ-Lb2b5 beacon = JunLZ-Lb2b5 beacon (UniProt P0AEX9 27-392 = MBP); assay: fluorescence emission screening (FIG. 11)
Procedure: as §1, §2

JunLZ-Lb1b4 beacon = JunLZ-Lb1b4 beacon (UniProt P0AEX9 27-392 = MBP); assay: fluorescence emission screening (FIG. 11)
Procedure: as §1, §2

Measured: binding result

B1: scrFosLZ (MBP-scrFosLZ, fusion protein of MBP and the scrambled cFos leucine zipper) (other, not shown: large carriers)
chain: GGSGGTDTAQAETDQAEDEKSAAQTEIANALKEKEKAEFILA
notes: Negative control; also called scrambled FosLZ
no binding (tested: 10.0 µM): JunLZ-Sb1b3 beacon | JunLZ-Sb3b5 beacon | JunLZ-Sb1b4 beacon | JunLZ-Lb1b3 beacon | JunLZ-Lb3b5 beacon | JunLZ-Lb2b5 beacon | JunLZ-Lb1b4 beacon
